1 protein from FireProtDB (doi:10.1002/pro.342) can be followed below.

For the data set the following is noted: Escherichia coli, pH 6.3, CD, Phosphate 50 mM, NaCl 300 mM, whole UniProt chain shown.

B1: Regulatory protein rop wild type, P03051 (protein)
chain: MTKQEKTALNMARFIRSQTLTLLEKLNELDADEQADICESLHDHADELYRSCLARFGDDGENL
Take B1: under “Thermal”, the Tm – broadly, the temperature at which the thermal transition is half complete – amounted to 70 °C; the “heat capacity change of unfolding” value came out at 1.1 kcal/mol/K; the “unfolding enthalpy (van 't Hoff)” value came to 65 kcal/mol. Where the note is “Urea”, the denaturant m value was 2.1 kcal/mol/M, the “denaturant midpoint (higher = more stable)” value was found to be 4.6 M and the unfolding free energy was determined as 16 kcal/mol.
